For one substance, stoichiometry N (subunits/oligomer) results are on record in PMC3997080.

The assay concerns the target αB-crystallin deletion mutant lacking residues 54FLRAPSWF61 (αBΔ54–61) (human) (UniProt P02511). Put plainly: SEC-MALS. (Size exclusion chromatography separates by hydrodynamic size, large species first.)

For “αB-crystallin deletion mutant lacking residues 54FLRAPSWF61 (αBΔ54–61) (from UniProt P02511 1-175) (natural protein)”, the stoichiometry N (subunits/oligomer) turned out to be 20.
